According to the RNAGym collection of RNA variant scans (doi:10.1021/acssynbio.7b00057):

B1: Pistol ribozyme (parent)
chain: GGGUCGUUGUUCCAUAAUCGCGUGGAUAUGGCACGCAAGUUUCUACCGGGCACCGUAAAUGUCCGACUGGAGCCGUUCGGGCGGCUAUAAACAGACCUCAGGCCCGAAGCGUGGCGGCACCUGCCGCCGGUGGUAAAAAAGAUCGGAAGAGCACACGUCU

Variants of: B1
Experiment: aptazyme ON/OFF ratio, guanine; higher = stronger switching; co-transcriptional cleavage with and without guanine

| Variant | aptazyme ON/OFF ratio |
| --- | --- |
| U7A U8G G9U U10G | 1.47 |
| U7A U8G G9U U10C | 2.52 |
| U7A U8G G9U U10C U11A C13U | 1.33 |
| U7A U8G G9U U10C U11A C13A | 1.44 |
| U7A U8G G9U U10C U11A C13G | 1.33 |
| U7A U8G G9U U10A U11G C12G | 1.19 |
| U7A U8G G9U U10A U11G C12U | 1.17 |
| U7A U8G G9U U10A U11G C12A | 1.06 |
| U7A U8G U10A U11A C12U C13U | 1.28 |
| U7A U8G U10A U11A C12U C13A | 1.72 |
| U7A U8G U10A U11A C12U C13G | 1.25 |
| U7A U8G U10C C12G C13A | 1.19 |
| U7A U8G G9U U10G U11C C13U | 1.05 |
| U7A U8G G9U U10G U11C C13G | 1.07 |
| U7A U8G G9U U10G U11C C13A | 1.12 |
| U7A U8G G9U U11A C13G | 1.25 |
| U7A U8G G9U U11A C13A | 1.38 |
| U7A U8G G9U U11A C13U | 1.44 |
| U7A U8G G9U U10C U11G C13G | 1.38 |
| U7A U8G G9U U10C U11G C13A | 1.28 |
| U7A U8G G9U U10C U11G C13U | 1.31 |

| Variant | aptazyme ON/OFF ratio |
| --- | --- |
| U7A U8G G9U U10A U11C C12U | 1.04 |
| U7A U8G G9U U10A U11C C12G | 1.43 |
| U7A U8G G9U U10A U11C C12A | 1.39 |
| U7A U8G G9U U10C C13G | 1.21 |
| U7A U8G G9U U10C C13U | 1.57 |
| U7A U8G G9U U10C C13A | 1.33 |
| U7A U8G G9U U11A C12G C13G | 1.26 |
| U7A U8G G9U U11A C12G C13A | 1.11 |
| U7A U8G G9U U11A C12G C13U | 1.39 |
| U7A U8G G9U U11C C12A | 1.23 |
| U7A U8G G9U U11C C12U | 1.54 |
| U7A U8G G9U U11C C12G | 1.26 |
| U7A U8G G9U U10C U11G C12U C13U | 1.53 |
| U7A U8G G9U U10C U11G C12U C13A | 1.21 |
| U7A U8G G9U U10C U11G C12U C13G | 1.31 |
| U7A U8G U10A U11C C13A | 1.18 |
| U7A U8G U10A U11C C13G | 1.25 |
| U7A U8G U10A U11C C13U | 1.05 |
| U7A U8G G9U U10C U11C C12A C13U | 1.2 |
| U7A U8G G9U U10C U11C C12A C13A | 1.21 |
| U7A U8G G9U U10C U11C C12A C13G | 1.32 |

| Variant | aptazyme ON/OFF ratio |
| --- | --- |
| U7A U8G G9U U10C U11C C13U | 1.07 |
| U7A U8G G9U U10C U11C C13A | 1.04 |
| U7A U8G G9U U10C U11C C13G | 1.12 |
| U7A U8G U10A U11G C12G C13G | 1.43 |
| U7A U8G U10A U11G C12G C13U | 1.46 |
| U7A U8G U10A U11G C12G C13A | 1.16 |
| U7A U8G G9U U10A U11A C12G | 1.33 |
| U7A U8G G9U U10A U11A C12U | 1.32 |
| U7A U8G G9U U10A U11A C12A | 1.2 |
| U7A U8G G9U C13A | 1.25 |
| U7A U8G G9U C13G | 1.14 |
| U7A U8G G9U C13U | 1.96 |
| U7A U8G U10A U11A C12G C13U | 1.63 |
| U7A U8G U10A U11A C12G C13G | 1.26 |
| U7A U8G U10A U11A C12G C13A | 1.56 |
| U7A U8G G9U U11C C12G C13U | 1.27 |
| U7A U8G G9U U11C C12G C13G | 1.32 |
| U7A U8G G9U U11C C12G C13A | 1.16 |
| U7A U8G G9U U10G U11A C13A | 1.17 |
| U7A U8G G9U U10G U11A C13U | 1.14 |
| U7A U8G G9U U10G U11A C13G | 1.25 |

| Variant | aptazyme ON/OFF ratio |
| --- | --- |
| U7A U8G G9U U10A U11C C12U C13G | 1.49 |
| U7A U8G G9U U10A U11C C12U C13A | 1.21 |
| U7A U8G G9U U10A U11C C12U C13U | 1.2 |
| U7A U8G G9U U10A U11G C12U C13G | 1.16 |
| U7A U8G G9U U10A U11G C12U C13U | 1.18 |
| U7A U8G G9U U10A U11G C12U C13A | 1.08 |
| U7A U8G G9U U11A C12U C13U | 1.07 |
| U7A U8G G9U U11A C12U C13G | 1.26 |
| U7A U8G G9U U11A C12U C13A | 1.43 |
| U7A U8G G9U U10G U11A C12G C13U | 1.02 |
| U7A U8G G9U U10G U11A C12G C13A | 1.13 |
| U7A U8G G9U U10G U11A C12G C13G | 1.38 |
| U7A U8G G9U U10A C12A C13A | 1.31 |
| U7A U8G G9U U10A C12A C13U | 1.36 |
| U7A U8G G9U U10A C12A C13G | 1.28 |
| U7A U8G G9U U10A U11C C12G C13U | 1.4 |
| U7A U8G G9U U10A U11C C12G C13A | 1.14 |
| U7A U8G G9U U10A U11C C12G C13G | 1.27 |
| U7A U8G U10A U11C C12A C13A | 1.26 |
| U7A U8G U10A U11C C12A C13U | 1.53 |
| U7A U8G U10A U11C C12A C13G | 1.26 |
